B1: SPAM1-PSTL: C-terminally truncated human PH20, precursor 489 aa (SEQ ID NO:12), mature 454 aa (SEQ ID NO:64) (protein, listed as Homo sapiens)
chain 1: MGVLKFKHIFFRSFVKSSGVSQIVFTFLLIPCCLTLNFRAPPVIPNVPFLWAWNAPSEFCLGKFDEPLDMSLFSFIGSPRINATGQGVTIFYVDRLGYYPYIDSITGVTVNGGIPQKISLQDHLDKAKKDITFYMPVDNLGMAVIDWEEWRPTWARNWKPKDVYKNRSIELVQQQNVQLSLTEATEKAKQEFEKAGKDFLVETIKLGKLLRPNHLWGYYLFPDCYNHHYKKPGYNGSCFNVEIKRNDDLSWLWNESTALYPSIYLNTQQSPVAATLYVRNRVREAIRVSKIPDAKSPLPVFAYTRIVFTDQVLKFLSQDELVYTFGETVALGASGIVIWGTLSIMRSMKSCLLLDNYMETILNPYIINVTLAAKMCSQVLCQEQGVCIRKNWNSSDYLHLNPDNFAIQLEKGGKFTVRGKPTLEDLEQFSEKFYCSCYSTLSCKEKADVKDTDAVDVCIADGVCIDAFLKPPMETEEPQIFYNASPSTL
chain 2: LNFRAPPVIPNVPFLWAWNAPSEFCLGKFDEPLDMSLFSFIGSPRINATGQGVTIFYVDRLGYYPYIDSITGVTVNGGIPQKISLQDHLDKAKKDITFYMPVDNLGMAVIDWEEWRPTWARNWKPKDVYKNRSIELVQQQNVQLSLTEATEKAKQEFEKAGKDFLVETIKLGKLLRPNHLWGYYLFPDCYNHHYKKPGYNGSCFNVEIKRNDDLSWLWNESTALYPSIYLNTQQSPVAATLYVRNRVREAIRVSKIPDAKSPLPVFAYTRIVFTDQVLKFLSQDELVYTFGETVALGASGIVIWGTLSIMRSMKSCLLLDNYMETILNPYIINVTLAAKMCSQVLCQEQGVCIRKNWNSSDYLHLNPDNFAIQLEKGGKFTVRGKPTLEDLEQFSEKFYCSCYSTLSCKEKADVKDTDAVDVCIADGVCIDAFLKPPMETEEPQIFYNASPSTL
modifications: HuPH20 precursor 1-489; mature HuPH20 36-489
B2: SPAM1-SATM: C-terminally truncated human PH20, precursor 493 aa (SEQ ID NO:10), mature 458 aa (SEQ ID NO:62) (protein, listed as Homo sapiens)
chain 1: MGVLKFKHIFFRSFVKSSGVSQIVFTFLLIPCCLTLNFRAPPVIPNVPFLWAWNAPSEFCLGKFDEPLDMSLFSFIGSPRINATGQGVTIFYVDRLGYYPYIDSITGVTVNGGIPQKISLQDHLDKAKKDITFYMPVDNLGMAVIDWEEWRPTWARNWKPKDVYKNRSIELVQQQNVQLSLTEATEKAKQEFEKAGKDFLVETIKLGKLLRPNHLWGYYLFPDCYNHHYKKPGYNGSCFNVEIKRNDDLSWLWNESTALYPSIYLNTQQSPVAATLYVRNRVREAIRVSKIPDAKSPLPVFAYTRIVFTDQVLKFLSQDELVYTFGETVALGASGIVIWGTLSIMRSMKSCLLLDNYMETILNPYIINVTLAAKMCSQVLCQEQGVCIRKNWNSSDYLHLNPDNFAIQLEKGGKFTVRGKPTLEDLEQFSEKFYCSCYSTLSCKEKADVKDTDAVDVCIADGVCIDAFLKPPMETEEPQIFYNASPSTLSATM
chain 2: LNFRAPPVIPNVPFLWAWNAPSEFCLGKFDEPLDMSLFSFIGSPRINATGQGVTIFYVDRLGYYPYIDSITGVTVNGGIPQKISLQDHLDKAKKDITFYMPVDNLGMAVIDWEEWRPTWARNWKPKDVYKNRSIELVQQQNVQLSLTEATEKAKQEFEKAGKDFLVETIKLGKLLRPNHLWGYYLFPDCYNHHYKKPGYNGSCFNVEIKRNDDLSWLWNESTALYPSIYLNTQQSPVAATLYVRNRVREAIRVSKIPDAKSPLPVFAYTRIVFTDQVLKFLSQDELVYTFGETVALGASGIVIWGTLSIMRSMKSCLLLDNYMETILNPYIINVTLAAKMCSQVLCQEQGVCIRKNWNSSDYLHLNPDNFAIQLEKGGKFTVRGKPTLEDLEQFSEKFYCSCYSTLSCKEKADVKDTDAVDVCIADGVCIDAFLKPPMETEEPQIFYNASPSTLSATM
modifications: HuPH20 precursor 1-493; esHuPH20 36-493
B3: SPAM1-TLSA: C-terminally truncated human PH20, precursor 491 aa (SEQ ID NO:11), mature 456 aa (SEQ ID NO:63) (protein, listed as Homo sapiens)
chain 1: MGVLKFKHIFFRSFVKSSGVSQIVFTFLLIPCCLTLNFRAPPVIPNVPFLWAWNAPSEFCLGKFDEPLDMSLFSFIGSPRINATGQGVTIFYVDRLGYYPYIDSITGVTVNGGIPQKISLQDHLDKAKKDITFYMPVDNLGMAVIDWEEWRPTWARNWKPKDVYKNRSIELVQQQNVQLSLTEATEKAKQEFEKAGKDFLVETIKLGKLLRPNHLWGYYLFPDCYNHHYKKPGYNGSCFNVEIKRNDDLSWLWNESTALYPSIYLNTQQSPVAATLYVRNRVREAIRVSKIPDAKSPLPVFAYTRIVFTDQVLKFLSQDELVYTFGETVALGASGIVIWGTLSIMRSMKSCLLLDNYMETILNPYIINVTLAAKMCSQVLCQEQGVCIRKNWNSSDYLHLNPDNFAIQLEKGGKFTVRGKPTLEDLEQFSEKFYCSCYSTLSCKEKADVKDTDAVDVCIADGVCIDAFLKPPMETEEPQIFYNASPSTLSA
chain 2: LNFRAPPVIPNVPFLWAWNAPSEFCLGKFDEPLDMSLFSFIGSPRINATGQGVTIFYVDRLGYYPYIDSITGVTVNGGIPQKISLQDHLDKAKKDITFYMPVDNLGMAVIDWEEWRPTWARNWKPKDVYKNRSIELVQQQNVQLSLTEATEKAKQEFEKAGKDFLVETIKLGKLLRPNHLWGYYLFPDCYNHHYKKPGYNGSCFNVEIKRNDDLSWLWNESTALYPSIYLNTQQSPVAATLYVRNRVREAIRVSKIPDAKSPLPVFAYTRIVFTDQVLKFLSQDELVYTFGETVALGASGIVIWGTLSIMRSMKSCLLLDNYMETILNPYIINVTLAAKMCSQVLCQEQGVCIRKNWNSSDYLHLNPDNFAIQLEKGGKFTVRGKPTLEDLEQFSEKFYCSCYSTLSCKEKADVKDTDAVDVCIADGVCIDAFLKPPMETEEPQIFYNASPSTLSA
modifications: HuPH20 precursor 1-491; esHuPH20 36-491
B4: SPAM1-STLS: C-terminally truncated human PH20, precursor 490 aa (SEQ ID NO:13), mature 455 aa (SEQ ID NO:65) (protein, listed as Homo sapiens)
chain 1: MGVLKFKHIFFRSFVKSSGVSQIVFTFLLIPCCLTLNFRAPPVIPNVPFLWAWNAPSEFCLGKFDEPLDMSLFSFIGSPRINATGQGVTIFYVDRLGYYPYIDSITGVTVNGGIPQKISLQDHLDKAKKDITFYMPVDNLGMAVIDWEEWRPTWARNWKPKDVYKNRSIELVQQQNVQLSLTEATEKAKQEFEKAGKDFLVETIKLGKLLRPNHLWGYYLFPDCYNHHYKKPGYNGSCFNVEIKRNDDLSWLWNESTALYPSIYLNTQQSPVAATLYVRNRVREAIRVSKIPDAKSPLPVFAYTRIVFTDQVLKFLSQDELVYTFGETVALGASGIVIWGTLSIMRSMKSCLLLDNYMETILNPYIINVTLAAKMCSQVLCQEQGVCIRKNWNSSDYLHLNPDNFAIQLEKGGKFTVRGKPTLEDLEQFSEKFYCSCYSTLSCKEKADVKDTDAVDVCIADGVCIDAFLKPPMETEEPQIFYNASPSTLS
chain 2: LNFRAPPVIPNVPFLWAWNAPSEFCLGKFDEPLDMSLFSFIGSPRINATGQGVTIFYVDRLGYYPYIDSITGVTVNGGIPQKISLQDHLDKAKKDITFYMPVDNLGMAVIDWEEWRPTWARNWKPKDVYKNRSIELVQQQNVQLSLTEATEKAKQEFEKAGKDFLVETIKLGKLLRPNHLWGYYLFPDCYNHHYKKPGYNGSCFNVEIKRNDDLSWLWNESTALYPSIYLNTQQSPVAATLYVRNRVREAIRVSKIPDAKSPLPVFAYTRIVFTDQVLKFLSQDELVYTFGETVALGASGIVIWGTLSIMRSMKSCLLLDNYMETILNPYIINVTLAAKMCSQVLCQEQGVCIRKNWNSSDYLHLNPDNFAIQLEKGGKFTVRGKPTLEDLEQFSEKFYCSCYSTLSCKEKADVKDTDAVDVCIADGVCIDAFLKPPMETEEPQIFYNASPSTLS
modifications: HuPH20 precursor 1-490; mature HuPH20 36-490

Test system: CHO-S cells
Assay: Western blot analysis of PH20 expression in media and cells after transient expression
Format: cell-based, Chinese Hamster
Details: media versus cells
In short: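 PH20 expression and solubility were judged by anti-PH20 Western blot of non-reduced media and cell fractions, with expression shown by a ~66 kDa band. Samples came from CHO-S cells transiently transfected (GeneJuice) with mutant PH20-HZ24 DNA and cultured 48-72 h. GPI-anchored mutants were cleaved with PI-PLC to release soluble protein.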

Row | Molecule | Expressed in Media
1 | B1 | YES
2 | B2 | YES
3 | B3 | YES
4 | B4 | YES

Test system: CHO-S cells
Assay: PI-PLC treatment of expressing cells, Western blot of media and cells
Format: cell-based, Chinese Hamster
Details: cells incubated with PI-PLC for 2 hours
In short: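 CHO-S cells transiently expressing rHuPH20 or C-terminal truncation mutants were treated with PI-PLC (0.5 units/well, or 3.0 units/dish in serum/detergent-free medium) for 2 h at 37 °C after 48–72 h expression. Untreated and treated media and cell extracts were analysed separately by Western blot for PH20.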

Row | Molecule | Expressed in Media Following Addition of PI-PLC
5 | B1 | Initially in media
6 | B2 | Initially in media
7 | B3 | Initially in media
8 | B4 | Initially in media

Test system: not listed separately
Assay: Triton X-114 partition assay
Format: physicochemical
Details: partition into aqueous phase of Triton X-114 at 37° C.
Description: Solubility of a hyaluronidase can be determined by any method known to one of the skill in the art. One method for determining solubility is by detergent partitioning. […] For example, the solubility of the PH20 polypeptides described herein is assessed as described in Example 4. Membrane-anchored hyaluronidases, such as lipid-anchored hyaluronidases, including GPI-anchored hyaluronidases, will partition into the detergent-rich phase, but will partition into the detergent-poor or aqueous phase following treatment with Phospholipase C. Phospholipase C is an enzyme that cleaves the […] found in GPI-anchored proteins. Treatment with PLC will cause release of GPI-linked proteins from the outer cell membrane.
The samples were heated to 37° C. for 3 minutes to induce phase separation and centrifuged for 3 min at 4000 g at room temperature. Aqueous and detergent phases were removed for SDS-PAGE analysis and Western blotting. Rabbit anti-PH20 IgG (0.5 μg/mL) was used as the primary antibody and HRP-conjugated goat anti-Rabbit IgG (0.1 ng/mL, Cat#DC03L, EMD) was used as the secondary antibody. Full length human PH20, which partitions strongly into the detergent phase, was used as a control.

Row | Molecule | Soluble
9 | B1 | YES
10 | B2 | YES
11 | B3 | YES
12 | B4 | YES

Test system: not listed separately
Assay: Microtiter hyaluronidase activity assay with biotinylated-hyaluronic acid
Format: biochemical
Details: Table 6; 72 hour post transfection supernatant; pH 5.5

Row | pH 5.5 Activity | Molecule
13 | 1.089 Units/ml | B1
14 | 0.7335 Units/ml | B2
15 | 0.5625 Units/ml | B3
16 | 1.2375 Units/ml | B4

Same assay, conditions: Table 6; 72 hour post transfection supernatant; pH 7.4

Row | pH 7.4 Activity | Molecule
17 | 1.557 Units/ml | B1
18 | 0.5715 Units/ml | B2
19 | 0.3645 Units/ml | B3
20 | 0.819 Units/ml | B4

Same assay, conditions: Table 6A; 72 hour post transfection supernatant; pH 5.5

Row | pH 5.5 Activity | Molecule
21 | 3.321 Units/ml | B1
22 | 0.851 Units/ml | B2
23 | 0.729 Units/ml | B3

Same assay, conditions: Table 6A; 72 hour post transfection supernatant; pH 7.4

Row | pH 7.4 Activity | Molecule
24 | 1.985 Units/ml | B1
25 | 0.689 Units/ml | B2
26 | 0.851 Units/ml | B3

Reference: patent US9284543B2, “Neutral active soluble truncated PH20 polypeptides and uses thereof” (Halozyme, Inc., priority 2008, dated 2016)
